Measured values: publication PMC11252911 (Proceedings of the National Academy of Sciences of the …, 2024)

Key:
[1] = biological target: Pwl2-3 (Magnaporthe oryzae); test: ITC
[2] = biological target: Pwl2-2 (Magnaporthe oryzae); test: ITC

HMA domain of OsHIPP43 (residues 26 to 101) (from UniProt Q8LJL3 26-101) (domain or fragment)
Kd [1]: 35 nM | Kd [2]: 141 nM
